For assay [1], the target named is T1, EF-hand-like domain of HuActNm (Homo sapiens, UniProt P12814).
T1 construct: made in house; host or cells: E. coli (GST fusion); rabbit reticulocyte lysate (PKNN2)
As to the kind of experiment: In vitro binding of PKNN2 to HuActNm EF-hand-like domain. As to the method: (§1) For in vitro binding experiment, 2 μl of in vitro translated PKNN2 was mixed with 5 μg of each GST-α-actinin fusion protein or with 25 μg of GST alone in 400 μl of GST binding buffer (20 mM Tris/HCl at pH 7.5, 0.5 mM DTT, 150 mM NaCl, 0.05% Triton-X100, 1 mM EDTA, 1 μg/ml leupeptin) and incubated for 1 hr at 4° C. After addition of 25 μl of glutathione-Sepharose 4B pretreated with 10 mg/ml of E. coli extract to block nonspecific binding, the binding reaction was continued for additional 30 min at 4° C. The glutathione-Sepharose 4B was then washed four times in GST washing buffer (20 mM Tris/HCl at pH 7.5, 0.5 mM DTT, 1 mM EDTA, 1 μg/ml leupeptin) containing 0.5 M NaCl and 0.5% Triton X-100, and further washed with GST washing buffer. Bound proteins were eluted with GST elution buffer (100 mM Tris/HCl at pH 7.5, 10 mM glutathione, 120 mM NaCl, 1 mM EDTA, 0.5 mM DTT, 1 μg/ml leupeptin) and were subjected to SDS-PAGE. The binding was visualized and quantitated by an imaging analyzer (FUJI BAS1000).
(§2) Accordingly, the present inventors have studied whether the in vitro translated PKNN2 could bind to the region of HuActNm corresponding to the PKN-binding site of HuActSkl in the same manner as in Example 25. The HuActNm fragment used in the experiment was prepared according to the following procedure. […]

In assay [2] the target is T2, spectrin-like repeat 3 domain of HuActNm (Homo sapiens, UniProt P12814).
T2 construct: made in house; host or cells: E. coli
T2 sequence (P12814 479-600): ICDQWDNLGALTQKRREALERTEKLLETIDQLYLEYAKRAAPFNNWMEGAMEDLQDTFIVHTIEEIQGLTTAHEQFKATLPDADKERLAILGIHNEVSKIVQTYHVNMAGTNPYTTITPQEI
As to the kind of experiment: In vitro binding of PKNN2 to HuActNm spectrin-like repeat 3. As to the method: as §1, §2

A further assay concerns α-actinin (HuActSkl). As to the kind of experiment: Yeast two-hybrid, regions of PKN with HuActSkl. Format: binding, human. As to the method:
Schemes of the fusion constructs for human PKN, human skeletal muscle type α-actinin (HuActSkl , designated in (Beggs, A., et al., J. Biol. Chem. 267, 9281-9288 (1992)) and non-skeletal muscle type α-actinin (HuActNm, designated in (Beggs, A., et al., J. Biol. Chem. 267, 9281-9288 (1992)) used in this study are shown in FIGS. 41 and 42. Screening of proteins, which bind to the N-terminal region of human PKN (the amino acid sequence 1-540, this region being designated as “PKNNl”), was performed as described in Example 6. Primary positive clones were recovered and retransfected into the original yeast host strain YGH1 (a, ura3-52, his3-200, ade2-101, lys2-801, trpl-901, leu2-3, Can^r, gal4-542, gal80-538, LYS2::gal1uas-gal1tala-HIS3, URA3::gall-lacZ) in combination with the Gal4bd-PKN or the Gal4bd-p53 tumor suppresser. Plasmids that activated marker expression only in the presence of PKN were analyzed further.
The two-hybrid methods was employed to identify the region of PKN that interacted with HuActSkl , and this region was compared with the binding site for RhoA, which binds to PKN, in vitro and in vivo. […] This region corresponds to the second leucine zipperlike sequence and the N-terminal region adjacent thereto, which is conserved through evolution in vertebrates (Mukai, H., et al., Biochim. Biophys. Acta 1261, 296-300 (1995)). […]

A further assay deals with T3, RhoA (Homo sapiens, UniProt P61586).
T3 construct: expressed in transfected cells; host or cells: yeast (two-hybrid system)
T3 sequence (P61586 whole entry): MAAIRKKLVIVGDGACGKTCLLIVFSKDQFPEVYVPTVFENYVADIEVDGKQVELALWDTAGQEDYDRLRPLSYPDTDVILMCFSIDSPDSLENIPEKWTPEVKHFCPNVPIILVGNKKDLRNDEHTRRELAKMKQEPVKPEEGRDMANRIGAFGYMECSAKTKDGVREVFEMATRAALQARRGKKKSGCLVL
As to the kind of experiment: Yeast two-hybrid, region of PKN with RhoA. The format is binding. To be noted: data not shown. An excerpt:
The two-hybrid methods was employed to identify the region of PKN that interacted with HuActSkl , and this region was compared with the binding site for RhoA, which binds to PKN, in vitro and in vivo. […] This region corresponds to the second leucine zipperlike sequence and the N-terminal region adjacent thereto, which is conserved through evolution in vertebrates (Mukai, H., et al., Biochim. Biophys. Acta 1261, 296-300 (1995)). Thus α-actinin binds to the region distinct from that which binds to Rho.

Assay [3] has as its target T4, in vitro translated PKNN2 (Homo sapiens, UniProt Q16512).
T4 construct: made in house; host or cells: in vitro translation in rabbit reticulocyte lysate (Promega)
As to the kind of experiment: In vitro binding of GST-HuActSkl fragments to PKNN2. To be noted: resistant to 0.5% Triton X-100/0.5 M NaCl wash. As to the method: In vitro transcription for the N-terminal region of PKN (the amino acid sequence 1-474, this region being designated as PKNN2 (Example 8)) was performed as described in Example 8. For in vitro translation, cRNAs were translated in rabbit reticulocyte lysate (Promega) in the presence of [^35S] methionine as described in Example 8.
as §1

Assay [4] has as its system GST-NF (each subunit) fusion proteins. As to the kind of experiment: In vitro binding of in vitro translated PKN to GST-NF (each subunit). To be noted: GST pull-down. From the text: For in vitro transcription, truncated human PKN was made as follows; Expression vector pPKNN2 for N-terminal region of PKN (the amino acid sequence 1-474 in SEQ ID NO: 1, this region was designated as “PKNN2”) was made by digesting phPKN-H4 (a plasmid containing human PKN cDNA in pBluescript II SK (Mukai, H. & Ono, Y., Biochem. Biophys. Res. Commun. 199, 897-904 (1994)) with Bst EII, and filling in the ends with T4 DNA polymerase, and self-legation. This removed the original amino acid sequences C-terminal downstream of the BstEII site (1425 nucleotides from initiating ATG codon), and a stop codon was created in the plasmid sequence. Fragment coding for the amino acid sequence 614-942 in SEQ ID NO: 1, (This region was designated as “PKNC2”) containing the conserved catalytic domain of human PKN was made by PCR amplification. Expression vector pPKNC2 was made by subcloning this fragment into pRc/CMV (Invitfrogen Corp.). These plasmids were linealized by cutting with XbaI, and CRNA was transcribed using T7 RNA polymerase. For NFL, pBL (Nakagawa, T. et al., J. Cell. Biol. 129, 411-429 (1995)) was linealized by cutting with HindIII, and CRNA was transcribed using T3 RNA polymerase. For in vitro translation, these cRNAs were translated in rabbit reticulocyte lysate (Promega) in the presence of [^35S] methionine. […]

The test system of assay [5] is repeat 20 of rat α-spectrin. Briefly: In vitro binding of PKN to α-spectrin repeat 20. As to the method: cDNAs encoding the spectrin-like repeat 3 (the amino acid sequence 479-600) and EF-hand-like region (the amino acid sequence 712-843) of HuActNm were amplified by PCR from human brain cDNA library, and were ligated to pGEX4T vector. cDNAs encoding the spectrin repeat 20 and EF-hand-like region of α-actinin were amplified by PCR from rat brain cDNA library, and were ligated to pGEX4T vector. Expression and purification of GST or GST fusion proteins were performed according to the manufacturer's instruction (Phamacia Biotech Inc.). The eluate from glutathione-Sepharose 4B (Pharmacia Biotech Inc.) was dialyzed overnight against 10 mM Tris/HCl at pH 7.5 containing 1 mM EDTA, 1 mM DTT, and 0.1 μg/ml leupeptin.
Since PKN bound to the repeat 3 of α-actinin, the present inventors have examined whether PKN can bind to the repeat 20 of α-spectrin.

The next assay has as its target full-length human PKN (Homo sapiens, UniProt Q16512). As to the kind of experiment: Co-immunoprecipitation of PKN with HA-tagged α-actinin in COS7 cells. The format is cell-based.

Ends that are not written are not given here.

T1 sequence (P12814 712-843): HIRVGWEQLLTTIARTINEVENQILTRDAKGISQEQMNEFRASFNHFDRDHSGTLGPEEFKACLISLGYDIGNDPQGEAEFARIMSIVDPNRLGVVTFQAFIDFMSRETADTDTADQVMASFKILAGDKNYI
full-length human PKN, sequence (P35609 333-894): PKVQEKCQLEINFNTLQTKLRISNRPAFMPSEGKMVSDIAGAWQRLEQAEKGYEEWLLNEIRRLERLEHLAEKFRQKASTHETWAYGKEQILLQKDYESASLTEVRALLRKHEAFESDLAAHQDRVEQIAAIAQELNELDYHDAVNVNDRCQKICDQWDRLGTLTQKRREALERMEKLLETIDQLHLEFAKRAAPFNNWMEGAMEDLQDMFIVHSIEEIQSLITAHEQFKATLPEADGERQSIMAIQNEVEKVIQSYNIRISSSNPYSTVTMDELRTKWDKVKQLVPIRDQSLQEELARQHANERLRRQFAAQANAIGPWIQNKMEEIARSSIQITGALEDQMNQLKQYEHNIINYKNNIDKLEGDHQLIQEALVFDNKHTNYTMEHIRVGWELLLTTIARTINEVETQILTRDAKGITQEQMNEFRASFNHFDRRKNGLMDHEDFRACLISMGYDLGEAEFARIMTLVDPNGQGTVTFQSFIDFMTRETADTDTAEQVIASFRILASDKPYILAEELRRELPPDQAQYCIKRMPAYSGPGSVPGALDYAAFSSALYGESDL
full-length human PKN, sequence (Q16512 whole entry): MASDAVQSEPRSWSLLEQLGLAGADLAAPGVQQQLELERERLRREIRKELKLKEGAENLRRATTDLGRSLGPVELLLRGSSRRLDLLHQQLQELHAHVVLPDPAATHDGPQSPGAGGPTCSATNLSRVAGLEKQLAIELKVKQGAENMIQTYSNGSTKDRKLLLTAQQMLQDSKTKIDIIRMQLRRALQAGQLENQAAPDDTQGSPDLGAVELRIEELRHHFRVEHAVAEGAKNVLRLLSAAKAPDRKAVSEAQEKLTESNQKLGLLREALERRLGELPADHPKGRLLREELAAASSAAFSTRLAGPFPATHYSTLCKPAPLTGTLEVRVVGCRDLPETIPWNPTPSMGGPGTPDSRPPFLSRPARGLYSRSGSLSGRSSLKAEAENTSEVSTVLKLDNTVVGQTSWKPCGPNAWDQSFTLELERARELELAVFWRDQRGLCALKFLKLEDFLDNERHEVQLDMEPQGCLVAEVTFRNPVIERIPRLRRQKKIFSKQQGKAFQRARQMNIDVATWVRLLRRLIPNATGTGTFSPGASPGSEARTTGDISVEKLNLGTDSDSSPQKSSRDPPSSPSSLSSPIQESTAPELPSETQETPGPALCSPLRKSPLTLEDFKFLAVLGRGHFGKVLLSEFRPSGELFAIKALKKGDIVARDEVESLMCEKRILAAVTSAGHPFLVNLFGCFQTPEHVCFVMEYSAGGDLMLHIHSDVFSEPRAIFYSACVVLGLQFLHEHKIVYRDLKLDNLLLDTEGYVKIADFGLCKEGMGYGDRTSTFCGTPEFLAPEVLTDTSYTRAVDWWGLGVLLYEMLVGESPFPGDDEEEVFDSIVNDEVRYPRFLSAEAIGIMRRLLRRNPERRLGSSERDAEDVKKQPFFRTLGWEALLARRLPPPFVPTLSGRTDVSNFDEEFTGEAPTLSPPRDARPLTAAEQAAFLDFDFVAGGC
α-actinin (HuActSkl), sequence (P35609 344-894 limits assumed): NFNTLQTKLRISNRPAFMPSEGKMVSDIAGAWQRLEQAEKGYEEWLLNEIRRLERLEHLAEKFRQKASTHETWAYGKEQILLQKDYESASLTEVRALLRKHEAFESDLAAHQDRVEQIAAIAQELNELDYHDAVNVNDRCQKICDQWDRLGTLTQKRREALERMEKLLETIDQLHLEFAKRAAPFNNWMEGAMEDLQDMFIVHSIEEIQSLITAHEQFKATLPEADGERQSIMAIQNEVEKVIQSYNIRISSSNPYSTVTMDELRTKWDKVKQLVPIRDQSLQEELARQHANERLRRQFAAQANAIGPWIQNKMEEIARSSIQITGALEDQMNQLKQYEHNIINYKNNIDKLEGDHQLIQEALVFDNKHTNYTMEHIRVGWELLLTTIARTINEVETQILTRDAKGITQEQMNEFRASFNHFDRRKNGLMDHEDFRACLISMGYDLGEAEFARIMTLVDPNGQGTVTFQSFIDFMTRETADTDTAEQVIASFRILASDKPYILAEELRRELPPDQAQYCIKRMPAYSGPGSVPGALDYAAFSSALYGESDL
T4 sequence (Q16512 1-474): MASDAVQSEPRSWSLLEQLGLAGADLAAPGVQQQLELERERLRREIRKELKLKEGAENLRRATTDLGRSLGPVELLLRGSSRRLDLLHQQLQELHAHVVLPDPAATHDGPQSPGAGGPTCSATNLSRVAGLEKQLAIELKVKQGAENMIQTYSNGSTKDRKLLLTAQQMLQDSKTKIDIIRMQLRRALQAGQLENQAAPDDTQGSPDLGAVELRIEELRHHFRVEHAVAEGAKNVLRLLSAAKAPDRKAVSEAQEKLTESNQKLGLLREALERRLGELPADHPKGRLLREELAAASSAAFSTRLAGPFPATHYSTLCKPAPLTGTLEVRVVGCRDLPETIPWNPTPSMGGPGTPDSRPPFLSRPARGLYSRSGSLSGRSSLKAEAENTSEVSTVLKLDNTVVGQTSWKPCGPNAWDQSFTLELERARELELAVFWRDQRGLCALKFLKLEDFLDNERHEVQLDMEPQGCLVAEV

“PKNN2: N-terminal region of PKN, amino acid sequence 1-474 in SEQ ID NO: 1, in vitro translated”: the “binding to EF-hand-like domain of HuActNm” value in assay [1] (absence of Ca^2+) is “not detected”. In addition, the “binding to EF-hand-like region of HuActNm” value in assay [1] (presence of 1 mM Ca^2+) is on record as “could effectively bind”. Besides, in assay [2], the “binding to spectrin-like repeat 3 domain of HuActNm” value is on record as “could bind”. Take “amino acid 136-189 of PKN: region of PKN: second leucine zipper-like sequence and adjacent N-terminal region”: the “interaction with α-actinin in two-hybrid system” value in the assay on α-actinin (HuActSkl) was “strongly interacted”. For the same substance, in the assay with RhoA, the “interaction with RhoA in two-hybrid system” value is “no interaction was detected”. On to “HuActSkl (837-894): human skeletal muscle type α-actinin fragment, GST fusion (ILASDKPYILAEELRRELPPDQAQYCIKRMPAYSGPGSVPGALDYAAFSSALYGESDL; also: GST fusion)”, for which the “binding of in vitro translated PKNN2 to the fragment” value in assay [3] is reported as “not”.

“PKN: in vitro translated PKN (PKNN2, 1-474) in the binding assays of b333 and b480”: in assay [4], the “binding to each subunit of NF at the head-rod domain in vitro” value is “directly bound”. Besides, the “in vitro binding to repeat 20 of rat α-spectrin” value in assay [5] was “not detected”. Regarding “HA-tagged α-actinin: influenza HA epitope fused to the amino acid sequence 333-894 of HuActSkl (clone#4)”, the “co-immunoprecipitation of PKN with anti-HA antibody” value in the assay with full-length human PKN is reported as “contained substantially immunoreactive PKN”.

These data come from patent US6660837B1, “Modified protein derived from protein kinase N” (Kirin Beer Kabushiki Kaisha, priority 1995, dated 2003).
